Broadly, the Kd is the constant that tells how readily two partners part at equilibrium. Higher therefore signals weaker binding.

This experiment addresses FGFR2b (Homo sapiens, UniProt P21802). Kind of experiment: SPR.

B1: bemarituzumab (antibody, V domains shown)
VH: QVQLVQSGAEVKKPGSSVKVSCKASGYIFTTYNVHWVRQAPGQGLEWIGSIYPDNGDTSYNQNFKGRATITADKSTSTAYMELSSLRSEDTAVYYCARGDFAYWGQGTLVTVSS
VL: DIQMTQSPSSLSASVGDRVTITCKASQGVSNDVAWYQQKPGKAPKLLIYSASYRYTGVPSRFSGSGSGTDFTFTISSLQPEDIATYYCQQHSTTPYTFGQGTKLEIKR
On to B1, for which binding was put at a Kd of 580 pM.

The values are drawn from article PMC7561547 (2020).
